Reference: PMC12331936, “Structural Insights into the Protein Mannosyltransferase from Mycobacterium tuberculosis reveal a WW-Domain-Like Protein Motif in Bacteria” (Communications Biology, 2025)

Assays:
[1] = system: EL4Cter* peptide; type: binding; settings: EL4Cter* 35 µM; increasing concentration of Z^x95; mean of three independent measurements
[2] = system: MtPMT; settings: in vivo (M. smegmatis cell assay); cited from earlier work
[3] = system: PhoA; type: cell-based, E. coli
[4] = system: FasC^His; type: cell-based, M. smegmatis
[5] = system: MtPMT; type: cell-based; settings: MtPMT mutant expressed in M. smegmatis ΔMsPMT; ELLA, relative to WT (100%) and No PMT (0%)

For `Cc1cc(-n2c(C)cc(/C=C/C(=O)N3CCCC3c3cccs3)c2C)no1` (stereo not drawn) [Z^x95, (2E)-3-[2,5-dimethyl-1-(5-methyl-1,2-oxazol-3-yl)-1H-pyrrol-3-yl]-1-[2-(thiophen-2-yl)pyrrolidin-1-yl]prop-2-en-1-one], the “effect on thermal denaturation curves of EL4Cter*” value [1] is given as “dose-dependent deviation of EL4Cter* thermal denaturation curves” and the “effect on FasC mannosylation in vivo” value [2] is given as “reduce FasC mannosylation in vivo”.

B1: MtPMT: M. tuberculosis protein-O-mannosyltransferase, wild type (protein, UniProt P9WN05 1-522, looked up)
Polyprenol-phosphate-mannose-- …: MTARPPESCVLAKDRPEEPVVPVVSPGPLVPVADFGPLDRLRGWIVTGLITLLATVTRFLNLGSLTDAGTPIFDEKHYAPQAWQVLNNHGVEDNPGYGLVVHPPVGKQLIAIGEAIFGYNGFGWRFTGALLGVVLVALVVRIVRRISRSTLVGAIAGVLLICDGVSFVTARTALLDGFLTFFVVAAFGALIVDRDQVRERMHIALLAGRSAATVWGPRVGVRWWRFGAGVLLGLACATKWSGVYFVLFFGAMALAFDVAARRQYQVQRPWLGTVRRDVLPSGYALGLIPFAVYLATYAPWFASETAIDRHAVGQAVGRNSVVPLPDAVRSLWHYTAKAFHFHAGLTNSAGNYHPWESKPWTWPMSLRPVLYAIDQQDVAGCGAQSCVKAEMLVGTPAMWWLAVPVLAYAGWRMFVRRDWRYAVVLVGYCAGWLPWFADIDRQMYFFYAATMAPFLVMGISLVLGDILYHPGQGSERRTLGLIVVCCYVALVVTNFAWLYPVLTGLPISQQTWNLEIWLPSWR
For B1, the “phosphatase activity on solid medium (chromogenic substrate)” value [3] was “remained uncolored” and the “number of FasC glycosylation states” value [4] was 18.

B2: W362A (protein, UniProt P9WN05 1-522, looked up, variant W362A)
Polyprenol-phosphate-mannose-- …: MTARPPESCVLAKDRPEEPVVPVVSPGPLVPVADFGPLDRLRGWIVTGLITLLATVTRFLNLGSLTDAGTPIFDEKHYAPQAWQVLNNHGVEDNPGYGLVVHPPVGKQLIAIGEAIFGYNGFGWRFTGALLGVVLVALVVRIVRRISRSTLVGAIAGVLLICDGVSFVTARTALLDGFLTFFVVAAFGALIVDRDQVRERMHIALLAGRSAATVWGPRVGVRWWRFGAGVLLGLACATKWSGVYFVLFFGAMALAFDVAARRQYQVQRPWLGTVRRDVLPSGYALGLIPFAVYLATYAPWFASETAIDRHAVGQAVGRNSVVPLPDAVRSLWHYTAKAFHFHAGLTNSAGNYHPWESKPWTAPMSLRPVLYAIDQQDVAGCGAQSCVKAEMLVGTPAMWWLAVPVLAYAGWRMFVRRDWRYAVVLVGYCAGWLPWFADIDRQMYFFYAATMAPFLVMGISLVLGDILYHPGQGSERRTLGLIVVCCYVALVVTNFAWLYPVLTGLPISQQTWNLEIWLPSWR
In the case of B2, the “FasC^His mannosylation / MtPMT enzymatic activity (ConA binding)” value [5] is reported as “absence of Fasc^His mannosylation” and the “reduction of expression of mutated enzyme (PhoA activity of PhoA fusion)” value [3] is reported as “about 50%”.
